Experimental data taken from patent publication EP0480381A1 (NIPPON CHEMIPHAR CO., LTD., dated 1992).

T1: rat endothelin receptor (rat)
T1 sequence (P26684 whole entry, looked up): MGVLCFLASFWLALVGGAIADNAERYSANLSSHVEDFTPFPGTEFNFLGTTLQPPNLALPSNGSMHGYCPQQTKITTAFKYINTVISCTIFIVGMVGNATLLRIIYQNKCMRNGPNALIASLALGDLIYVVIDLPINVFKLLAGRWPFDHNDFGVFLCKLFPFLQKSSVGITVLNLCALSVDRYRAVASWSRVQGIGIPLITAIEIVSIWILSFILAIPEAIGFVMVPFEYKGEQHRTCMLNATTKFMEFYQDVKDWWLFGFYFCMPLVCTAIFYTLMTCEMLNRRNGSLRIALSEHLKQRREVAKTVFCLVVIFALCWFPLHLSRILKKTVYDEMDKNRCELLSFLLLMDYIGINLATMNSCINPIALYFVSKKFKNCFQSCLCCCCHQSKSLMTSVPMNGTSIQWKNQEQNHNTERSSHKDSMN


Molecular target: T1, rat endothelin receptor
Assay: cell-based or functional assay

Binder | increase of calcium concentration in cytoplasm (fura-2), EC50 [pM]
CTCFTYKDKECVYYCHLDIIW (peptide, UniProt P14138 97-117, looked up) [endothelin-3] | ~20
CSCSSLMDKECVYFCHLDIIW (peptide, UniProt P05305 53-73, looked up) [endothelin-1] | ~20
